From PMC12582121 come the findings set out here.

The test addresses glyceraldehyde-3-phosphate dehydrogenase (GAPDH) (human) (UniProt P04406). Kind of test: mass photometry; recombinant GAPDH without RNA; 100 nM GAPDH in binding buffer (10 mM Tris-HCl pH 8.0, 50 mM KCl, 2 mM DTT, 0.5 mM EDTA), 25 min at room temperature, diluted 1:10 for measurement; TwoMP mass photometer; monomer and tetramer peaks seen.

Sequence of glyceraldehyde-3-phosphate dehydrogenase (GAPDH), P04406 1-335 (enzyme; other documents disagree on this pair) (P04406 whole entry): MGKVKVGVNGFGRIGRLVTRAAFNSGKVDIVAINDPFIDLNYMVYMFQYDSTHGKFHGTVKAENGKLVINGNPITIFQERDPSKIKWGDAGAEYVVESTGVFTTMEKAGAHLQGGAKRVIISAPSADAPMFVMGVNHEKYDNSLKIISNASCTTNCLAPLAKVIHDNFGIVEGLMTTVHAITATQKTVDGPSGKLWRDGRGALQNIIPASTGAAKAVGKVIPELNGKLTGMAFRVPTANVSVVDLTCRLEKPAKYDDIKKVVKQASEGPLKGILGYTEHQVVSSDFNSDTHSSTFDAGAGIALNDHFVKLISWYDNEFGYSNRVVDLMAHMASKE

As to “glyceraldehyde-3-phosphate dehydrogenase (GAPDH), P04406 1-335 (enzyme; other documents disagree on this pair)”, the stoichiometry N (commonly the number of molecules, sites or subunits per partner or assembly) came to 4.
